Our source for the Kd values is publication doi:10.1101/216143.

In the assay the target is unmodified R1810 peptide of the RNAP2-CTD (human). Put plainly: MST.

Regarding “recombinant PADI2 (peptidyl arginine deiminase 2) (from UniProt Q9Y2J8 1-665) (enzyme)”, the Kd is 220 nM.
